This passage reports Kd results from US20240209095A1 (published 2024).

The target of the assay is PDL1-hFc (UniProt Q9NZQ7 19-238). The assay can be described thus: ELISA. A general note: An ELISA detects its analyte on a solid surface through an enzyme-linked reagent.
Chain of PDL1-hFc (Q9NZQ7 19-238): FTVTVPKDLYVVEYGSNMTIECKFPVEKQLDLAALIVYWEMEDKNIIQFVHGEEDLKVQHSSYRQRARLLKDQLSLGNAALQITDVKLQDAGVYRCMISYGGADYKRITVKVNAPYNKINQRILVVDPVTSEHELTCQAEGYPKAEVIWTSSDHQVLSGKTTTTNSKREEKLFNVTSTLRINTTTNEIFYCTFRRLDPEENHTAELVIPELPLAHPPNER

B1: mouse-human chimera 3C3 MM (antibody, V domains shown)
VH: EVQLQESGPGLTKPSQTLSLTCSVTGYSITSDYWDWIRKFPGNKLEYMGYISYTGSTYYNPSLRSRISITRDTSKNQYYLQLSSVTSEDSATYYCARRGGWLSPFVYWGQGTLVTVSA
VL: DTVMSQSPSSLGVSVGERVTLTCKSRQSLLFSSNQKNSLAWYQQKPGQSPKLLIYWASTRESGVPDRFTGSGSGTDFTLTISSVKSEDLAVYYCQQYYTYPFTFGAGTSLELK
By Kd is commonly meant the concentration at which binding is half-saturated. A lower Kd goes with a tighter complex. Consider B1, for which the affinity, expressed as Kd, was 0.0666 nM.
